# Test results reported in article PMC4604771, “A novel eurythermic and thermostale lipase LipM from Pseudomonas moraviensis M9 and its application in the partial hydrolysis of algal oil” (BMC Biotechnology, 2015).
# Substrate: CCCCCCCC(=O)Oc1ccc([N+](=O)[O-])cc1
# Assay: p-nitrophenol release, Lineweaver-Burk plot
# Assay type: biochemical, Pseudomonas moraviensis
# Settings: 50 mM Tris-HCl, pH 8.0, 65 °C, 0.01-2 mM substrate
protein,measurement,value
"LipM (Pseudomonas moraviensis) (protein, pET-22b(+) NdeI/XhoI, His tag kept (C-terminal by vector)) MGLFDYRNADGKALYSDAIALTLYAYAPTGEPLPATAWAPVAATALGYQGKVGPQGTFFGEQDGYTSAEAEVLGKYDAAGKLIGIGIAFRGTGGLGYSDTYGDMKNNLLAAFGPSDYASHYAKNAFDHLLKAVAAFAIANGIAAQDVLISGHSLGGLGVNSVAELSASHWGGFFKDANYIAFASPTQSSTGSNVLNIGYENDPVFRALDGTTFSSGSLGKHDGAHDSTTDNIVNFTDNYASTAQNLVPFSIVNPLNWSAHSSLGYADGLNRVIDSQFYALTHKDSTIIVSNLEEASRGKTWVEDLGRSGEPHVGSTLIIGTHSSDWLKGGSGNDFLEGLGGDDRFRDDGGFNILLGGQGHNTFELQKPLQNFSFANDGDGTLYVRDAYGGISLTRDIGALVSKEAGSWWGSKEITWGVTAKGLSNGSELTQYNHSLSGDGYGNALHASADGDWLFGLGGNDSLISDKGHVTFVGGAGNDVMTALGGNNTFLFSGAFGFDAVNGYQGNDKLVFMGVEGAGQGYDYKQHASQSGDDTVLKIGDYAVTLIGVGVANLSDSSIMFA",Km,360 µM
same,kcat,35.7 s⁻¹
